Measured values published in publication PMC10724965, “FRIZZLE PANICLE (FZP) regulates rice spikelets development through modulating cytokinin metabolism”.

Target: MBP-FZP (Oryza sativa, UniProt Q8H3Q1 1-318)
Experiment: EMSA; 5 nmol protein, 2 nmol probe (so in the source); shift substantially weakened by excess unlabeled probe; EMSA: 10 uL, 2 uL 5x EMSA/Gel-shift binding buffer (Beyotime?), 5 nmol protein, 2 nmol biotin-labeled probe; salt, pH and temperature not given
Settings: protein: recombinant; tags: MBP (pMAL-c2x); label: biotin; blunt

Chain of MBP-FZP (Q8H3Q1 whole entry): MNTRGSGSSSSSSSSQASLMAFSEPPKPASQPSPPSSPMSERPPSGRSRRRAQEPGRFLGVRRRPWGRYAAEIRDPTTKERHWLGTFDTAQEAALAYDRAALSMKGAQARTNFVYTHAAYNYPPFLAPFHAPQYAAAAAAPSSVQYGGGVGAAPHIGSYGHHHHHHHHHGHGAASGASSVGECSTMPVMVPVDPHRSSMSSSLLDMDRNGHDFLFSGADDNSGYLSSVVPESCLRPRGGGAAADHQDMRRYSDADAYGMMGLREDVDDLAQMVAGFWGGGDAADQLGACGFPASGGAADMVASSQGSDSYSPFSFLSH

B1: EMSA-DST-probe (GCC-box, DST promoter) (dsDNA)
DNA 1: GCACAAGACCCGCAGGCCCAATGGCGAGCCGCCACGTGTACCCGCGCCTCCCCTCCCCGGCC
DNA 2: GGCCGGGGAGGGGAGGCGCGGGTACACGTGGCGGCTCGCCATTGGGCCTGCGGGTCTTGTGC
  binding result: binds
